Results as given in article PMC7870846, “Incorporation of sensing modalities into de novo designed fluorescence-activating proteins” (Nature Communications, 2021).
Where a chain is given by its changes, count along the chain named.

Key:
[1] = Ca2+-responsive mFAP Ca2+ titrations; format: binding
Procedure: In measuring Ca^2+ affinity of mFAPs on a Synergy Neo2 hybrid multi-mode reader (Fig. 4d, e, f and Supplementary Figs. 10c, f, i, 11c, f, i, 13c, f, i, 16b), large-scale purified proteins[49] were aliquoted in technical triplicate to a final concentration of 500 nM with 5.00 μM DFHBI in eleven serial dilutions ( 10 dilution factor) of CaCl2 (Sigma Aldrich) starting from either 900 mM or 90.0 mM CaCl2 (diluted using high-salt Tev cleavage buffer) including a twelfth condition without CaCl2. Final volumes were 200 μL in flat bottom, black polystyrene, non-binding surface 96-well microplates (Corning 3650). Fluorescence endpoints were measured using excitation wavelength λex = 484 nm and emission wavelength λem = 508 nm. Background fluorescence endpoints of wells with identical chromophore and CaCl2 concentrations lacking protein (substituted for equivalent volumes of high-salt Tev cleavage buffer) were measured in technical triplicate, averaged per condition, and subtracted from protein measurement averages of the same conditions.
For Ca^2+ titrations of EF4n_mFAP2a and EF4n_mFAP2b (Supplementary Fig. 13c), a small amount of Chelex 100 sodium form (Sigma Aldrich) was added to purified protein (produced by large-scale protein purification and SEC purification[49]) and nutated at 4 °C overnight. EF4n_mFAP2a was aliquoted in technical triplicate to a final concentration of 8.00 μM with 80.0 μM DFHBI and EF4n_mFAP2b was aliquoted in technical triplicate to a final concentration of 6.25 μM with 43.4 μM DFHBI, in eleven serial dilutions ( 10 dilution factor) of CaCl2 starting from 9.00 mM or 4.00 mM CaCl2 (diluted using high-salt Tev cleavage buffer pre-treated with Chelex 100) including a twelfth condition without CaCl2. Final volumes were 25.0 μL in flat bottom, black polystyrene, non-binding surface 96-well half-area microplates (Corning 3686) or 200 μL in flat bottom, black polystyrene, non-binding surface 96-well microplates (Corning 3650). Fluorescence endpoints were measured for EF4n_mFAP2a using excitation wavelength λex = 478 nm and emission wavelength λem = 520 nm, and for EF4n_mFAP2b using excitation wavelength λex = 484 nm and emission wavelength λem = 508 nm. Background fluorescence endpoints of wells with identical chromophore and CaCl2 concentrations lacking protein (substituted for equivalent volumes of high-salt Tev cleavage buffer) were measured in technical triplicate, averaged per condition, and subtracted from protein measurement averages of the same conditions. For non-linear least squares fitting to obtain Kd values, means were fit to a single-binding site isotherm function where Ca^2+-binding sites were modeled independently with a Hill coefficient of 1.

BCL2 = biological target: BCL2; set-up: method as in PMID 27805565; conditions: read-out: dissociation constant (Kd); cited from earlier work
[2] = In vitro chromophore titration with DFHBI (fluorescence, single-binding site isotherm fit)
Procedure: Fluorescence endpoints were measured on a Synergy Neo2 hybrid multi-mode reader (BioTek) in flat bottom, black polystyrene, non-binding surface 96-well microplates (Corning 3650). In measuring chromophore-binding affinities (Fig. 1d, e), mFAP2, mFAP2a, and mFAP2b, and mFAP10 were produced by large-scale protein purification and SEC purification. Proteins were aliquoted in eight technical replicates in 200 μL final volumes to 20.0 nM final concentration in ten serial dilutions ( 10 dilution factor) of DFHBI starting from 31.6 μM DFHBI or 31.6 μM DFHBI-1T final concentrations, including an eleventh condition without chromophore. Fluorescence was excited at λex = 468 nm and fluorescence emission measured at λem = 530 nm. Background fluorescence endpoints of wells with identical chromophore concentrations but purified protein replaced with an identical volume of high-salt Tev cleavage buffer were measured, and fluorescence endpoints subtracted from those measured with protein. Background-subtracted data were averaged and the means normalized from 0 to 1 and fit to a single-binding site isotherm function using non-linear least squares fitting to obtain a fitted Kd value (Table 1), and the fit scaled to the maximum mean value (Fig. 1d, e).

[3] = Fluorescence intensity assays of mFAP variants; format: biochemical
Procedure: To measure fluorescence intensities of the phenolate form of chromophores, fluorescence was measured on a Synergy Neo2 hybrid multi-mode reader (BioTek) in flat bottom, black polystyrene, non-binding surface 96-well microplates (Corning 3650). Fluorescence intensity was measured in triplicate by exciting at λex = 484 nm and measuring fluorescence emission at λem = 505 nm (or λem = 511 nm for clones harboring the W27 mutation) (Supplementary Fig. 1g, h). The W27 mutation redshifts the peak emission wavelength from λem = ~505 nm to λem = ~511 nm, presumably due to the W27 indole ring donating a hydrogen bond to the imidazolinone moiety of the deprotonated state of DFHBI, which stabilizes the chromophore conjugated π–electron system in the excited state causing the redshift in emission. Fifteen microliters of small-scale purified protein[49] was combined with 185 μL of Na2HPO4-citrate (pH 7.36) buffer supplemented with 150 mM NaCl and 108 nM DFHBI for a final concentration of 100 nM DFHBI. In measuring the excitation spectra from λem = 525 nm of each clone in triplicate (Supplementary Fig. 1i), 30.0 μL of large-scale purified protein[49] was combined with 170 μL of 25.0 mM Tris (pH 8.00) supplemented with 100 mM NaCl and 914 nM DFHBI for a final concentration of 7.77 μM protein and 777 nM DFHBI. In measuring the fluorescence intensity at λex = 484 nm and λem = 509 nm of each clone in triplicate (Supplementary Fig. 1j), 30.0 μL of large-scale purified protein[49] was combined with 170 μL of 25.0 mM Tris (pH 8.00) supplemented with 100 mM NaCl and 653 nM DFHBI for a final concentration of 5.55 μM protein and 555 nM DFHBI. In measuring fluorescence intensity at λex = 468 nm and λem = 530 nm of each clone in technical triplicate (Supplementary Fig. 1k), 24.0 μL of 35.4 µM large-scale purified protein[49] was combined with 1.00 μL of 1.25 µM DFHBI or 1.00 μL of 1.25 µM DFHBI-1T (Lucerna) (from […] chromophore stock solutions dissolved in 0.5% DMSO and 99.5% high-salt Tev cleavage buffer [25.0 mM Tris, 100 mM NaCl, pH 8.00]) for final concentrations of 34.0 μM protein and 50.0 nM chromophore. The mFAP9–DFHBI complex had ~1.1-fold the fluorescence intensity of the mFAP10–DFHBI complex, and the mFAP9–DFHBI-1T complex had ~0.75-fold the fluorescence intensity of the mFAP10–DFHBI-1T complex (Supplementary Fig. 1k). In collecting fluorescence emission spectra by exciting fluorescence at λex = 484 nm and collecting fluorescence emission at λem = 495–650 nm (Supplementary Fig. 6b), and in measuring fluorescence endpoints in techincal triplicate at unique peak excitation and emission wavelengths (Supplementary Fig. 6c), 195 μL of large-scale purified protein[49] was combined with 5.00 μL of 25 mM Tris (pH 8.00) supplemented with 100 mM NaCl and 40.0 μM DFHBI for a final concentration of 10.0 μM protein and 1.00 μM DFHBI.
In measuring fluorescence intensity of small-scale purified proteins[49] (Supplementary Table 1), wells were excited at λex = 488 nm for DFHBI and DFHBI-1T and λex = 505 nm for DFHO, and fluorescence emission measured at λem = 510 nm for DFHBI and DFHBI-1T and λem = 545 nm for DFHO. […]

[4] = Photophysical characterization: absorbance, excitation/emission spectra, extinction coefficients, quantum yields; format: physicochemical
Procedure: Protein preparation: mFAP2a, mFAP2b, and mFAP10 were produced by large-scale protein purification and SEC purification, and dialyzed overnight into DPBS that was adjusted to pH 7.40 using NaOH.
Chromophore preparation: DFHBI (Lucerna) and DFHBI-1T (Lucerna) were dissolved to 20.0 mM in 100% DMSO, and diluted in DPBS (pH 7.40) to measure absorbances on a Jasco V-750 spectrophotometer at peak absorbance wavelengths (417 nm for DFHBI and 422 nm for DFHBI-1T). Following background subtraction of identical buffer without chromophore, Beer’s Law was used to calculate the molar chromophore concentrations of the stock solutions using previously reported extinction coefficients.
Preparation of protein–chromophore complexes: For quantum yield measurements, 1.00 μM, 836 nM, or 919 nM chromophore solutions in DPBS (pH 7.40) at 4.00 mL final volumes were prepared for the following eight conditions: DFHBI only, DFHBI-1T only, 43.5 µM 6xHis-mFAP10 with DFHBI, 43.5 µM 6xHis-mFAP10 with DFHBI-1T, 134 μM 6xHis-mFAP2a with DFHBI, 134 μM 6xHis-mFAP2a with DFHBI-1T, 206 μM 6xHis-mFAP2b with DFHBI, and 206 μM 6xHis-mFAP2b with DFHBI-1T.
Extinction coefficients: Absorbance spectra of protein–chromophore complexes were first measured with a Thermo Scientific BioMate 3S UV–Vis Spectrophotometer (1 nm interval, 800 nm min^−1). The extinction coefficients were then calculated using Beer’s Law:12 A=ε⋅b⋅c, where A is peak absorbance, ε is extinction coefficient, b is path length (1 cm), and c is concentration (1.00 μM, 836 nM, or 919 nM).
Relative quantum yield: A Perkin-Elmer LS-B Luminescence Spectrophotometer (10 nm bandwidth, 1 nm interval, 100 nm min^−1) was used. The fluorescence emission spectra of the protein–chromophore complexes (in DPBS, pH 7.40) and reference dye Acridine Yellow G (in methanol) were first obtained, and the quantum yield was then calculated using the equation[53]:13 ϕc=ϕr⋅1−10^−Ar(λex)/1−10^−Ac(λex)⋅∫Fc(λ)⋅dλ/∫Fr(λ)⋅dλ⋅nc2/nr2, where ϕ is quantum yield, A(λex) is absorbance at the excitation wavelength λex ( λex = 440 nm), F is fluorescence emission, n is refractive index of the solution (1.3350 for DPBS at pH 7.40 and 1.3284 for methanol), and the subscripts “c” and “r” refer to the protein–chromophore complex measured and the reference dye, respectively. […]
Absolute quantum yield: An integrating sphere instrument (Hamamatsu C9920-12) (6 nm excitation bandwidth, 1 nm interval) and a high-sensitivity photonic multi-channel analyzer (Hamamatsu C10027-01) were used to measure a light emission spectrum. Absolute quantum yields were measured for solutions of protein–chromophore complexes in DPBS (pH 7.40) in which ≥95% of the total chromophore was occupying the protein-binding pocket (Table 1). […]

B1: EF1p2_mFAP2b: positively allosteric Ca2+-responsive mFAP, one EF-hand motif (protein)
chain: SRAAQLLPGTWQVTMTNEDGQTSQGQWHFQPRSPYTMDIVAQGTISDGRPIVGYGKATVKTPDTLDIDITYPSLGNIKAQGQITMDSPTQFKWDAHYKGDKDGDGYISAAEAAAQGLTGTLQRQE
In the case of B1, the “Ca2+-responsiveness / allostery between DFHBI and Ca2+ binding” value ([1]; Ca2+ titration with excess DFHBI) is reported as “positive allostery” and the Kd ([1]; excess DFHBI compared to protein, Hill coefficient of 1) is reported as 2.3 mM.

B2: aBFL1: designed binding partner of BFL1 (protein)
chain: GADPKKVLDKAKDQAENRVRELKQKLEELYKEARKLDLTQEKRKKLEVATLGAVLAAHGDILNAIMQAKEEADKLKKAGLVNSQQLDELKRRLEELKEEALRKASDYGNEFHLKRRYG
In the case of B2, the Kd (BCL2) is listed as 0.00032 ± 4e-05 mM.

B3: mFAP2a: mFAP2 variant, "a" for affinity (protein)
chain: SRAAQLLPGTWQATFTNEDGQTSQGQWHFQPRSPYTMDIVAQGTISDGRPIVGYGKATVKTPDTLDIDITYPSLGNIKAQGQITMDSPTQFKWDATTKGENDFHGRLTGTLQRQE
For B3, the “higher affinity for DFHBI than DFHBI-1T” value [2] was ~ 39 fold, the “brighter fluorescence than mFAP2b” value ([3]; low-DFHBI concentration (555 nM)) was ~ 1.3 fold and the “brighter fluorescence with DFHBI-1T than DFHBI” value [4] was ~ 2.5 fold.

B4: mFAP2.3: brightest variant of loop7 library (protein)
chain: B3 chain with A13V, F15M, W27M, I39V, A57V, I67V, W93F
In the case of B4, the “increase in fluorescence intensity from the phenolate form of DFHBI from mFAP2.2” value ([3]; pH 7.36) is reported as ~ 1.1 fold.

B5: mFAP10: variant from the IN2 combinatorial library (protein)
chain: B3 chain with W27I, W93F
With B5 the “higher affinity for DFHBI than DFHBI-1T” value [2] was ~ 2.6 fold and the “brighter fluorescence with DFHBI-1T than DFHBI” value [4] was ~ 12 fold.

B6: mFAP3: brightest DFHO-binding variant (protein)
chain: B3 chain with Y71W, A79G, A95G
With B6 the “fluorescence intensity with DFHO, lower (dimmer) than mFAP2b with DFHBI” value ([3]; 10.0 µM DFHO vs 10.0 µM DFHBI) was ~ 10 fold.
